Measurements published in publication PMC4932527.

Molecular target: human LEPTIN receptor expressed in 293FT cells (human) (UniProt P48357)
UniProt P48357, sequence (P48357 22-1165): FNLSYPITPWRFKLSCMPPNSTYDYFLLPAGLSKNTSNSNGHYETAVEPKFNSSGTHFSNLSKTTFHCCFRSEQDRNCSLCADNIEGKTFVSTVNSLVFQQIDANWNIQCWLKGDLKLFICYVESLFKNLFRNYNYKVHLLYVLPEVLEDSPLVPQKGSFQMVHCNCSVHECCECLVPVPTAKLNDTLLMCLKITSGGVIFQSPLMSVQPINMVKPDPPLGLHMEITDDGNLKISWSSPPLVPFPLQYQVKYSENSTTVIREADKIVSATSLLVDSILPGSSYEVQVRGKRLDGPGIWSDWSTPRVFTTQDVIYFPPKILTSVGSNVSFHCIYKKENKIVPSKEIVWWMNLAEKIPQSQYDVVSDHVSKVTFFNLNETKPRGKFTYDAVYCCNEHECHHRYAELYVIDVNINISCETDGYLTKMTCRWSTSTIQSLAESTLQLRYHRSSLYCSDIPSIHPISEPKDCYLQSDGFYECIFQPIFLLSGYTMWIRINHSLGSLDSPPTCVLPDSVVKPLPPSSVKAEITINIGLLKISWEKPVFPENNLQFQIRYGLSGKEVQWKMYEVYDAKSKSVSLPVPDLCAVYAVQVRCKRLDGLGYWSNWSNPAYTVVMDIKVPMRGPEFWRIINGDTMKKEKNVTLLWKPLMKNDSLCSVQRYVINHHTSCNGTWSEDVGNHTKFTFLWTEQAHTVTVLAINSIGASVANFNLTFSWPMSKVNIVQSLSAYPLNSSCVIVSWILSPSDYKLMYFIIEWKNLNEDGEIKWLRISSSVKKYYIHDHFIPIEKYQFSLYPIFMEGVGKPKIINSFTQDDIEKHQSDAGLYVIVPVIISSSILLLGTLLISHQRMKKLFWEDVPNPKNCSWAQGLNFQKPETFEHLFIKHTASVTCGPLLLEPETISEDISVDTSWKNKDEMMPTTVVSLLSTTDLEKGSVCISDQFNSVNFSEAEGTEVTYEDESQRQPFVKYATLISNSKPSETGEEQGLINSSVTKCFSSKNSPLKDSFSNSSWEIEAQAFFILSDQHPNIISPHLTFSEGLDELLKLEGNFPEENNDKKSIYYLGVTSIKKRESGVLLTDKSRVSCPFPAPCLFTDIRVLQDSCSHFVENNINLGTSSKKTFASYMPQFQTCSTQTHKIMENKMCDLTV

Substance: recombinant rat LEPTIN, wild type (from UniProt P50596 22-167) (ligand)
- STAT3 luciferase reporter (pGL6-Stat3, normalised to renilla) in 293FT cells transfected with LEPR, treated with different concentrations of recombinant LEP; EC50 of activation: 3e-09 M
